{
  "source": "patent US20140127200A1",
  "target": "HER2 expressed on the surface of breast carcinoma cells (BT-474; SK-BR-3) (human) (UniProt P04626)",
  "experiment": "cell-based or functional assay",
  "data": [
    {"substance": "HER-con4(H) (…® with the 2xcon4 MRD fused to the heavy chain) (bispecific antibody)", "values": [
      {"measurement": "ADCC on SK-BR-3 cells with human PBMCs (specific release), IC50", "result": 67, "unit": "pM"}
    ]}
  ]
}
